The values that follow come from patent US20250161472A1 (BIOATLA, published 2025).

The target in experiment [1] is human ROR2 expressed on the surface of HEK293 cells (human, UniProt Q01974 34-943). Briefly: cell-based or functional assay.
In experiment [2] the target is T1, human ROR2 (receptor tyrosine kinase-like orphan receptor 2) (human, UniProt Q01974 34-403, limits assumed).
T1 construct: Antigen of the ELISA, SPR and pH titration assays; also called hROR2
Briefly: plate binding assay (ELISA per Example 1) on ROR2 at pH 6.0 and pH 7.4, 40 ng mAb, untreated and after 1 h at 60°C. For orientation: In an ELISA, binding on a coated surface is turned into a signal by an enzyme label.

For experiment [3], the target named is human ROR2 (receptor tyrosine kinase-like orphan receptor 2) (human) (UniProt Q01974). Put plainly: affinity ELISA on human ROR2, pH 6.0.
Experiment [4] has the same target. Put plainly: affinity ELISA on human ROR2, pH 7.4.
Experiment [5] has the same target. Briefly: affinity ELISA on human ROR2, signal at pH 6.0 over pH 7.4.
Experiment [6] concerns the target T1, human ROR2 (receptor tyrosine …). Briefly: affinity ELISA on human ROR2, pH 6.0. Further details: unit not given here.
Experiment [7] has the same target. Briefly: affinity ELISA on human ROR2, pH 7.4. Further details: unit not given here.

T1 sequence (Q01974 34-403 limits assumed): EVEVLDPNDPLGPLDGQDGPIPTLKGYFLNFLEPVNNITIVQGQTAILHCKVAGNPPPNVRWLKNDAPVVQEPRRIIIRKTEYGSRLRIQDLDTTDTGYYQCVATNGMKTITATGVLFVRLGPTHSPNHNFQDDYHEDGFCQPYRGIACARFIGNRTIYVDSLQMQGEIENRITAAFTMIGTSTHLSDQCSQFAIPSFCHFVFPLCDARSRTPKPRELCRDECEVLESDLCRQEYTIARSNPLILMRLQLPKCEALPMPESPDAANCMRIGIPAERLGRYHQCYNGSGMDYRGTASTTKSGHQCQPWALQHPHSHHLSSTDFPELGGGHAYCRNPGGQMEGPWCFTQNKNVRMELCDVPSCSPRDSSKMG
Chain of human ROR2 (receptor tyrosine kinase-like orphan receptor 2) (human) (Q01974 34-403 limits assumed): as above
Chain of human ROR2 expressed on the surface of HEK293 cells (Q01974 34-943): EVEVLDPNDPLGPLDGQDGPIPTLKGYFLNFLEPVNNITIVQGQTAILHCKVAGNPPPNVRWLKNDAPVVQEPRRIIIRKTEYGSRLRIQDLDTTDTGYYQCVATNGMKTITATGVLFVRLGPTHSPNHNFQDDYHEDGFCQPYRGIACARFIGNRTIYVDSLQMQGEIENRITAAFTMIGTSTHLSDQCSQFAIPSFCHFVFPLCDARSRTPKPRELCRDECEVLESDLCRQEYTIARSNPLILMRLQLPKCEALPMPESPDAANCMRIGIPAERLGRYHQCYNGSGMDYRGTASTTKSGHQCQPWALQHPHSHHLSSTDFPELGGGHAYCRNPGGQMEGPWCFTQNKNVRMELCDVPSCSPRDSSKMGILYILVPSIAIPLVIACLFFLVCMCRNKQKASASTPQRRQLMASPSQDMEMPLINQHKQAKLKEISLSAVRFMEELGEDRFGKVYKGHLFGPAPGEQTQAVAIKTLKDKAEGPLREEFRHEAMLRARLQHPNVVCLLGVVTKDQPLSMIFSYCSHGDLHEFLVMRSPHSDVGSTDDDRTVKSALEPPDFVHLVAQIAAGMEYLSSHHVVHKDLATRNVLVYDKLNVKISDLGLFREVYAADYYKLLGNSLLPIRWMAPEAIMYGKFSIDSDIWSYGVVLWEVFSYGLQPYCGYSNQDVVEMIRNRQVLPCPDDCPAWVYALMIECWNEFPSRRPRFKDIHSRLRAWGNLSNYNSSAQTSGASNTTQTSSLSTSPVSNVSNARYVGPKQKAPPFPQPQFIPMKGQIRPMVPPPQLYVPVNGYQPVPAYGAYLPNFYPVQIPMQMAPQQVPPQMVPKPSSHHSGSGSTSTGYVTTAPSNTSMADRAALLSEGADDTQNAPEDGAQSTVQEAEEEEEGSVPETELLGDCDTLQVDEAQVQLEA

B1: BAP048 conjugated to monomethyl auristatin E (BAP048 ADC) (other)
VL: AIQLTQSPSSLSASVGDRVTITCSATSSVSYMHWYLQKPGQSPQLLIYGTSNLASGVPDRFSGSGSGTDFTLKISRVEAEDVGVYYCQQRSSYPFTFGQGTKVEIK
VH: EVQLVQSGAEVKKPGESLRISCKGSGYTFTEYTMHWVRQAPGQGLEWMGGINTNNGGTGYNQKFKGRVTISADKSISTAYLQWSSLKASDTAMYYCAHGSLYSYGNSYFDYWGQGTLVTVSS
modifications: MMAE drug conjugate (site, chain and linker not stated in Example 5)
Take B1: the “cell killing, difference of effective concentration between pH 7.4 and pH 6.0” value in experiment [1] was around 10 fold.

B2: BAP048.7-humA03F01-CAB (#3948) (antibody, V domains shown)
VH: EVQLVQSGAEVKKPGESLRISCKGSGYTFTEYTMHWIRQSPSRGLEWLGGINTNNGGTGYNQKFKGRVTISADKSISTAYLQWSSLKASDTAMYYCAHGSLYSYGNSYFDYWGQGTLVTVSS
VL: AIQLTQSPSSLSASVGDRVTITCSATSSVSYMHWYLQKPGQSPQLLIYGTSNLASGVPDRFSGSGSGTDFTLKISRVEAEDVGVYYCQQRSSYPFTFGQGTKVEIK
notes: The sheet says 'mAb'; also called BAP048.7-humA03F01 (#3948); BAP048.7-A03F01
With B2, the binding result in experiment [2] is recorded as “binds”.

B3: BAP048.7-humC02D09-CAB )#3947) (antibody, V domains shown)
VH: QVQLVQSGAEVKKPGASVKVSCKASGYTFTEYTMHWVRQARGQRLEWIGGINTNNGGTGYNQKFKGRVTISADKSISTAYLQWSSLKASDTAMYYCAHGSLYSYGNSYFDYWGQGTLVTVSS
VL: AIQLTQSPSSLSASVGDRVTITCSATSSVSYMHWYQQKPGQAPRLLIYGTSNLASGVPDRFSGSGSGTDFTLKISRVEAEDVGVYYCQQRSSYPFTFGQGTKVEIK
notes: The sheet says 'mAb'; also called BAP048.7-C02D09; ROR2-CAB1-ADC (as conjugate)
With B3, in experiment [2], the binding result was “binds”.

B4: HC-N106E (antibody, V domains shown)
VH: EVQLQQSGPELVKPGASVKISCKTSGYTFTEYTMHWMKQSHRKSLEWIGGINTNNGGTGYNQKFKGKATLTVDKSSSTAYMELRSLTSEDSAVYFCARGSLYSYGESYFDYWGQGTLVTVSS
VL: QIVLTQSPAIMSASPGEKVTITCSATSSVSYMHWFQQKPGTSPKLWIYGTSNLASGVPARFSGSGSGTSYSLTISRMEAEDAATYYCQQRSSYPFTFGQGTKVEIK
For the molecule B4, in experiment [3], the Affinity ELISA, pH 6.0 turned out to be 0.224. In experiment [4], this molecule came in with an Affinity ELISA, pH 7.4 of 0.115. In experiment [5], the ratio, pH 6.0/7.4 turned out to be 1.95.

B5: LC-F097D (antibody, V domains shown)
VH: EVQLQQSGPELVKPGASVKISCKTSGYTFTEYTMHWMKQSHRKSLEWIGGINTNNGGTGYNQKFKGKATLTVDKSSSTAYMELRSLTSEDSAVYFCARGSLYSYGNSYFDYWGQGTLVTVSS
VL: QIVLTQSPAIMSASPGEKVTITCSATSSVSYMHWFQQKPGTSPKLWIYGTSNLASGVPARFSGSGSGTSYSLTISRMEAEDAATYYCQQRSSYPFTDGQGTKVEIK
The molecule B5 displayed an Affinity ELISA, pH 6.0 in experiment [3] of 0.19. The molecule also had an Affinity ELISA, pH 7.4 in experiment [4] of 0.107. Further, in experiment [5], the ratio, pH 6.0/7.4 is 1.77.

B6: LC-S092V (antibody, V domains shown)
VH: EVQLQQSGPELVKPGASVKISCKTSGYTFTEYTMHWMKQSHRKSLEWIGGINTNNGGTGYNQKFKGKATLTVDKSSSTAYMELRSLTSEDSAVYFCARGSLYSYGNSYFDYWGQGTLVTVSS
VL: QIVLTQSPAIMSASPGEKVTITCSATSSVSYMHWFQQKPGTSPKLWIYGTSNLASGVPARFSGSGSGTSYSLTISRMEAEDAATYYCQQRSVYPFTFGQGTKVEIK
notes: CPE single point mutant of parent VL 48.6-LC-WT
For B6, in experiment [6], the “Affinity ELISA, pH 6.0” value was 1.23. The “Affinity ELISA, pH 7.4” value in experiment [7] was 1.18.

B7: LC-T096D (antibody, V domains shown)
VH: EVQLQQSGPELVKPGASVKISCKTSGYTFTEYTMHWMKQSHRKSLEWIGGINTNNGGTGYNQKFKGKATLTVDKSSSTAYMELRSLTSEDSAVYFCARGSLYSYGNSYFDYWGQGTLVTVSS
VL: QIVLTQSPAIMSASPGEKVTITCSATSSVSYMHWFQQKPGTSPKLWIYGTSNLASGVPARFSGSGSGTSYSLTISRMEAEDAATYYCQQRSSYPFDFGQGTKVEIK
notes: as for B6
As to B7, the “Affinity ELISA, pH 6.0” value in experiment [6] amounted to 0.755. Moreover, in experiment [7], the “Affinity ELISA, pH 7.4” value turned out to be 0.474.

B8: LC-Y031C (antibody, V domains shown)
VH: EVQLQQSGPELVKPGASVKISCKTSGYTFTEYTMHWMKQSHRKSLEWIGGINTNNGGTGYNQKFKGKATLTVDKSSSTAYMELRSLTSEDSAVYFCARGSLYSYGNSYFDYWGQGTLVTVSS
VL: QIVLTQSPAIMSASPGEKVTITCSATSSVSCMHWFQQKPGTSPKLWIYGTSNLASGVPARFSGSGSGTSYSLTISRMEAEDAATYYCQQRSSYPFTFGQGTKVEIK
notes: as for B6
Turning to B8, in experiment [6], the “Affinity ELISA, pH 6.0” value came out at 1.34. The “Affinity ELISA, pH 7.4” value in experiment [7] was 0.7.

B9: LC-Y031D (antibody, V domains shown)
VH: EVQLQQSGPELVKPGASVKISCKTSGYTFTEYTMHWMKQSHRKSLEWIGGINTNNGGTGYNQKFKGKATLTVDKSSSTAYMELRSLTSEDSAVYFCARGSLYSYGNSYFDYWGQGTLVTVSS
VL: QIVLTQSPAIMSASPGEKVTITCSATSSVSDMHWFQQKPGTSPKLWIYGTSNLASGVPARFSGSGSGTSYSLTISRMEAEDAATYYCQQRSSYPFTFGQGTKVEIK
notes: as for B6
For B9, the “Affinity ELISA, pH 6.0” value in experiment [6] stood at 0.911. Further, the “Affinity ELISA, pH 7.4” value in experiment [7] turned out to be 0.405.

B10: LC-S030D (antibody, V domains shown)
VH: EVQLQQSGPELVKPGASVKISCKTSGYTFTEYTMHWMKQSHRKSLEWIGGINTNNGGTGYNQKFKGKATLTVDKSSSTAYMELRSLTSEDSAVYFCARGSLYSYGNSYFDYWGQGTLVTVSS
VL: QIVLTQSPAIMSASPGEKVTITCSATSSVDYMHWFQQKPGTSPKLWIYGTSNLASGVPARFSGSGSGTSYSLTISRMEAEDAATYYCQQRSSYPFTFGQGTKVEIK
notes: as for B6
Consider B10, for which the “Affinity ELISA, pH 6.0” value in experiment [6] is 0.733. Besides, in experiment [7], the “Affinity ELISA, pH 7.4” value came out at 0.252.

B11: LC-S092D (antibody, V domains shown)
VH: EVQLQQSGPELVKPGASVKISCKTSGYTFTEYTMHWMKQSHRKSLEWIGGINTNNGGTGYNQKFKGKATLTVDKSSSTAYMELRSLTSEDSAVYFCARGSLYSYGNSYFDYWGQGTLVTVSS
VL: QIVLTQSPAIMSASPGEKVTITCSATSSVSYMHWFQQKPGTSPKLWIYGTSNLASGVPARFSGSGSGTSYSLTISRMEAEDAATYYCQQRSDYPFTFGQGTKVEIK
notes: as for B6
On to B11, for which, in experiment [6], the “Affinity ELISA, pH 6.0” value was 1.13. In addition, the “Affinity ELISA, pH 7.4” value in experiment [7] was found to be 1.12.
